{"source": "patent US20220332804A1", "about": "(CSL INNOVATION, published 2022)", "assay_in_all_cases": "SPR, KD relative to WT C2;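 note: biacore SPR at 37 °C, anti-C2 mAbs captured via immobilised goat anti-human IgG, C2 alanine or serine surface mutants as analytes, 1:1 model fitted, double-referenced sensograms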", "key": {"[1]": {"target": "T1, human C2 K415A (human, UniProt P06681 21-752)", "T1 sequence": "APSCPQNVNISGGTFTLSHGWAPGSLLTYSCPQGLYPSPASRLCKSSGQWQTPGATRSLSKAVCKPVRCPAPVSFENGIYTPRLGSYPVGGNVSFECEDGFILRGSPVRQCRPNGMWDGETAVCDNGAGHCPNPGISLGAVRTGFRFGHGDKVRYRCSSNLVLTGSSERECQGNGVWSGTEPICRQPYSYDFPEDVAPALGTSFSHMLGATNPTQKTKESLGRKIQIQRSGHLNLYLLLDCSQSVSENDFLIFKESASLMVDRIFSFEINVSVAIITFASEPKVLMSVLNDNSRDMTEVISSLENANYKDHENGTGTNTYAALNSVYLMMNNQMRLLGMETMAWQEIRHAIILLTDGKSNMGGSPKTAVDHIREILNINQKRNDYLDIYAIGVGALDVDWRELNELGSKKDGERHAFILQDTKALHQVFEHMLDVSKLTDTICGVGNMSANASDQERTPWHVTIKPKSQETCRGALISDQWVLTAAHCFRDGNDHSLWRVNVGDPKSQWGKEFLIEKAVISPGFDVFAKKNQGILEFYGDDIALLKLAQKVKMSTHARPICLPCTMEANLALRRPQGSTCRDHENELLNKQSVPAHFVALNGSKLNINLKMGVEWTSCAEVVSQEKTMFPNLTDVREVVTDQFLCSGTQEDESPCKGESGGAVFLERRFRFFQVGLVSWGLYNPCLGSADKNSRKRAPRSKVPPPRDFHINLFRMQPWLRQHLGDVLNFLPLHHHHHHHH", "method": "(§1) Surface plasmon resonance (SPR, Biacore) was used for all binding affinity analyses. In brief, goat anti-human IgG was directly immobilised onto the carboxymethyl dextran surface of CM5 sensorchips to approximately 12,000 RU using standard NHS/EDC chemistry at pH 5. The immobilised antibody surface was pre-conditioned with ten injections of polyclonal human IgG (Privigen 60 s) prepared at 1 μg/mL. Ligands (anti-C2 mAbs) were captured at the beginning of each cycle as described below. An adjacent spot or flow cell in which only Polyclonal IgG was capture was used as a reference surface. The goat anti-human IgG Fc antibody surface was regenerate in 100 mM H3PO4, injected for 45 seconds at the end of each cycle. Experiments were performed at 37° C. and the flow rate of each experiment was kept constant at 30 μL/min.\n(§2) Sensogram data was double-referenced against a reference anti-IgG surface (i.e. minus anti-C2 mAb) and blank buffer injections obtained within each experiment. The binding data was fit to 1:1 (kinetic or steady-state) model using local Rmax and null refraction index (RI=0) when appropriate. Buffers and solutions were filtered (0.22 μm) prior to use."}, "[2]": {"target": "T2, human C2 R434A (human, UniProt P06681 21-752)", "T2 sequence": "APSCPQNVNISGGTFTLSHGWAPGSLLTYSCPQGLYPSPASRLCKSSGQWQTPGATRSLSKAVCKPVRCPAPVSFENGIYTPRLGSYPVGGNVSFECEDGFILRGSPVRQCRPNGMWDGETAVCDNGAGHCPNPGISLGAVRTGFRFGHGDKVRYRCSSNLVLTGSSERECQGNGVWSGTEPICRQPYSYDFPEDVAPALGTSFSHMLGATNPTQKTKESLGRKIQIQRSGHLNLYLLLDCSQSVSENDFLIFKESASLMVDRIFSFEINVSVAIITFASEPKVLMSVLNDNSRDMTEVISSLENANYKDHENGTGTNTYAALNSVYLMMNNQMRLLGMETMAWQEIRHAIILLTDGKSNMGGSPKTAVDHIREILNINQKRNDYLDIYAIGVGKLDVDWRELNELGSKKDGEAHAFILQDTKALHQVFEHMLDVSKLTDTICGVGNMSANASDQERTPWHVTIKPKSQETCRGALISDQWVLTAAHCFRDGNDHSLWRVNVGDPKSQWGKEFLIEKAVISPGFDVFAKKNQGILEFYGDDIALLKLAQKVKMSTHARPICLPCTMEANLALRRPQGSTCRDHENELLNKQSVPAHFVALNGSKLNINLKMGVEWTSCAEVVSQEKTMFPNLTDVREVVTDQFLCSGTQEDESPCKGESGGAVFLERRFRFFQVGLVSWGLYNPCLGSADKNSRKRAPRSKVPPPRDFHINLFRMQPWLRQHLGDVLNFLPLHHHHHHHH", "method": "as §1, §2"}, "[3]": {"target": "T3, human C2 F437A (human, UniProt P06681 21-752)", "T3 sequence": "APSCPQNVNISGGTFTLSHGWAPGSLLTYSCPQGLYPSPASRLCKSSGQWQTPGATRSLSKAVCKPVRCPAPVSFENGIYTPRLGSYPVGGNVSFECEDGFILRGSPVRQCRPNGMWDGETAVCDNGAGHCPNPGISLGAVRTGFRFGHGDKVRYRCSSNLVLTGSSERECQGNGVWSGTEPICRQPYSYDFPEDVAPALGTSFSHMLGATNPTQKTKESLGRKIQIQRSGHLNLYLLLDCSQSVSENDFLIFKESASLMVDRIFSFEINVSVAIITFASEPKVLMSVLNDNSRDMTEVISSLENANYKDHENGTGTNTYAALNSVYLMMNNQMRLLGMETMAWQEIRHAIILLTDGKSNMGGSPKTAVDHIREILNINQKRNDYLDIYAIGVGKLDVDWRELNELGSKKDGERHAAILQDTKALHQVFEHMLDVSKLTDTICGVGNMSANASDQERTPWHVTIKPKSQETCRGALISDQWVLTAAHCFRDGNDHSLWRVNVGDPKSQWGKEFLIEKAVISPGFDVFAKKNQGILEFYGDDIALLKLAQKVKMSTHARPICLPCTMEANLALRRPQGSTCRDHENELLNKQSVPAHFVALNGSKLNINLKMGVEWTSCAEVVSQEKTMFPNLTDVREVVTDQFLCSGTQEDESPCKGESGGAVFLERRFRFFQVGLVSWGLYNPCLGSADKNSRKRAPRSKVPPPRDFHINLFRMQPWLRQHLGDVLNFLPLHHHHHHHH", "method": "as §1, §2"}, "[4]": {"target": "T4, human C2 E532A (human, UniProt P06681 21-752)", "T4 sequence": "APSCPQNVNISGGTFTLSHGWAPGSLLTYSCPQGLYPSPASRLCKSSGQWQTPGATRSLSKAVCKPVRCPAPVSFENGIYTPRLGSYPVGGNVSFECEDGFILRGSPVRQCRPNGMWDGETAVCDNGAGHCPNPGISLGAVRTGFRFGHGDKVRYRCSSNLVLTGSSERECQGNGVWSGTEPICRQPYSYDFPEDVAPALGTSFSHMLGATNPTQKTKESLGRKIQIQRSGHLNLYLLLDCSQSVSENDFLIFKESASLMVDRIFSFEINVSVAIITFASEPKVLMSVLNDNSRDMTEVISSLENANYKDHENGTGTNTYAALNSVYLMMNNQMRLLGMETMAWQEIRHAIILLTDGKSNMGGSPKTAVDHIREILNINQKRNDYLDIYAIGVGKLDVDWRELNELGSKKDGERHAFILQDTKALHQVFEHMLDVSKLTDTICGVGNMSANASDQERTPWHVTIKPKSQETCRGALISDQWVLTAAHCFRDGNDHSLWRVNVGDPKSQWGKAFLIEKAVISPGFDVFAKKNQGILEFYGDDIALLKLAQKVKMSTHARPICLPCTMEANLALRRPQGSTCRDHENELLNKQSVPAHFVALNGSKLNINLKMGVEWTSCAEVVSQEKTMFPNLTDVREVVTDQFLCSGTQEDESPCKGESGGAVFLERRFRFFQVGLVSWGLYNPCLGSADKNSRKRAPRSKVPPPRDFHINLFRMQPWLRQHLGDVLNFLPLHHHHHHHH", "method": "as §1, §2"}}}
{"binder": "RF16-226 (antibody, human IgG4 S228P, lambda, pH-dependent anti-C2 antibody from a phage display library; also called WT) heavy: not shown light: SYELTQPPSVSVSPGQTARITCSGDALTSKYVAWYQQKSGLAPLLVIYEDTRRPSGIPAKFSGSSSGSVATLTISGAHGDDEADYYCYSTDASGHQRVFGGGTKLTVLSQPKAAPSVTLFPPSSEELQANKATLVCLISDFYPGAVTVAWKADGSPVKAGVETTKPSKQSNNKYAASSYLSLTPEQWKSHRSYSCQVTHEGSTVEKTVAPTECS", "values": [{"measurement": "Fold diff", "setting": "[1]", "value": 1, "unit": "fold"}, {"measurement": "Fold diff", "setting": "[2]", "value": 14, "unit": "fold"}, {"measurement": "Fold diff", "setting": "[3]", "value": 26, "unit": "fold"}, {"measurement": "Fold diff", "setting": "[4]", "value": 2, "unit": "fold"}]}
